Assay [1] concerns the target T1, human 4-1BB on the surface of HEK293-Hu4-1BB cells (human, UniProt Q07011 24-255).
T1 construct: whole, on cells; also called CD137; human 4-1BB antigen
The assay can be described thus: FACS on HEK293 cells highly expressing human 4-1BB. From the text: (§1) HEK293-Hu4-1BB cells were obtained by transient transfection of HEK293 cells (ATCC CRL-1573) with a gene expressing human 4-1BB protein or polypeptide (CD137 cDNA ORF Clone, Human, C-OFPSpark tag; purchased from Sino Biological, Cat #HG10041-ACR). The cell culture medium was DMEM (Gibco, Cat #11995065) containing 10% fetal bovine serum. The experimental medium was sterile PBS (phosphate-buffered saline, pH 7.40) containing 2% fetal bovine serum. HEK293-Hu4-1BB cells were washed with the experimental medium twice and seeded into a 96-well U-bottom plate at 1×10⁵ HEK293-Hu4-1BB cells per well. Different concentrations of the anti-4-1BB single-domain antibody VHH-Fc samples to be tested were added. The cells were incubated at 4° C. for 1 h and then washed with the experimental medium twice. Then the goat anti-human IgG (H+L) Alexa Fluor 488 antibody (Thermo, Cat #A11013) was added. After two washes, fluorescence signal values were measured using a flow cytometer. Urelumab was used as a positive control.
A comparison of the antigen-binding activity of C5_V2 and C5_V2-YTI was made using a FACS assay as described in Example 5.

Assay [2] concerns the target T1, human 4-1BB on the surface of …. The assay can be described thus: cell-based or functional assay.
Assay [3] has the same target. The assay can be described thus: FACS on HEK293 cells highly expressing human 4-1BB.
Text: as §1
The antigen-binding activity of the humanized antibodies was measured using a FACS assay as described in Example 2.
The source holds these as a separate data set.

The target is the same in assay [4]. The experiment in a line: cell-based or functional assay. This is another data set of the same source.

Like-named read-outs stand apart in the source and are kept apart here.

T1 sequence (Q07011 24-255): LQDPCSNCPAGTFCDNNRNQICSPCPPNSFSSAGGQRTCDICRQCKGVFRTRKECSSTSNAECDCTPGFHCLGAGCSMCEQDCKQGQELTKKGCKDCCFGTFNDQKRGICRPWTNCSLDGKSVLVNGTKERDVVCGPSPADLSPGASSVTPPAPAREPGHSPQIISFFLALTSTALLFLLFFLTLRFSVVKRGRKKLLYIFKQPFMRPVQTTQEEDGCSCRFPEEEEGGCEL

B1: Urelumab (antibody, V domains shown)
VH: QVQLQQWGAGLLKPSETLSLTCAVYGGSFSGYYWSWIRQSPEKGLEWIGEINHGGYVTYNPSLESRVTISVDTSKNQFSLKLSSVTAADTAVYYCARDYGPGNYDWYFDLWGRGTLVTVSS
VL: EIVLTQSPATLSLSPGERATLSCRASQSVSSYLAWYQQKPGQAPRLLIYDASNRATGIPARFSGSGSGTDFTLTISSLEPEDFAVYYCQQRSNWPPALTFGGGTKVEIK
On to B1, for which, in assay [1], a half-maximal effect (EC50) was put at 1.64 nM and the Maximal fluorescence value stood at 39700. In assay [2], the “EC50, 4-1BB/NF-κB luciferase reporter, FcγRIIb cross-linking” value was 0.027 nM; the “EC50, 4-1BB/NF-κB luciferase reporter, no FcγRIIb cross-linking” value amounted to 2.19 nM; the “Emax, 4-1BB/NF-κB luciferase reporter, FcγRIIb cross-linking” value is 9.39 relative to antibody-free group; the “Emax, 4-1BB/NF-κB luciferase reporter, no FcγRIIb cross-linking” value is 4.3 relative to antibody-free group. Besides, in assay [3], a half-maximal response (EC50) required 1.18 nM and the Maximal fluorescence value turned out to be 1000. In addition, in assay [4], the “Factor of variation in Emax, FcγRIIb-mediated activation of HEK293-4-1BB cells” value amounted to 2.61 fold and the “Factor of variation in Emax, activation of HEK293-4-1BB cells” value was 1.7 fold.

Source of the values: patent US20250026842A1 (JIANGSU HENGRUI PHARMACEUTICALS, published 2025).
